Measured values reported in PMC3413146 (Nucleic Acids Research, 2012).

Target: T1, RECQL4 (endogenous) (human (endogenous in HeLa), UniProt O94761 1-1208)
T1 sequence (looked up): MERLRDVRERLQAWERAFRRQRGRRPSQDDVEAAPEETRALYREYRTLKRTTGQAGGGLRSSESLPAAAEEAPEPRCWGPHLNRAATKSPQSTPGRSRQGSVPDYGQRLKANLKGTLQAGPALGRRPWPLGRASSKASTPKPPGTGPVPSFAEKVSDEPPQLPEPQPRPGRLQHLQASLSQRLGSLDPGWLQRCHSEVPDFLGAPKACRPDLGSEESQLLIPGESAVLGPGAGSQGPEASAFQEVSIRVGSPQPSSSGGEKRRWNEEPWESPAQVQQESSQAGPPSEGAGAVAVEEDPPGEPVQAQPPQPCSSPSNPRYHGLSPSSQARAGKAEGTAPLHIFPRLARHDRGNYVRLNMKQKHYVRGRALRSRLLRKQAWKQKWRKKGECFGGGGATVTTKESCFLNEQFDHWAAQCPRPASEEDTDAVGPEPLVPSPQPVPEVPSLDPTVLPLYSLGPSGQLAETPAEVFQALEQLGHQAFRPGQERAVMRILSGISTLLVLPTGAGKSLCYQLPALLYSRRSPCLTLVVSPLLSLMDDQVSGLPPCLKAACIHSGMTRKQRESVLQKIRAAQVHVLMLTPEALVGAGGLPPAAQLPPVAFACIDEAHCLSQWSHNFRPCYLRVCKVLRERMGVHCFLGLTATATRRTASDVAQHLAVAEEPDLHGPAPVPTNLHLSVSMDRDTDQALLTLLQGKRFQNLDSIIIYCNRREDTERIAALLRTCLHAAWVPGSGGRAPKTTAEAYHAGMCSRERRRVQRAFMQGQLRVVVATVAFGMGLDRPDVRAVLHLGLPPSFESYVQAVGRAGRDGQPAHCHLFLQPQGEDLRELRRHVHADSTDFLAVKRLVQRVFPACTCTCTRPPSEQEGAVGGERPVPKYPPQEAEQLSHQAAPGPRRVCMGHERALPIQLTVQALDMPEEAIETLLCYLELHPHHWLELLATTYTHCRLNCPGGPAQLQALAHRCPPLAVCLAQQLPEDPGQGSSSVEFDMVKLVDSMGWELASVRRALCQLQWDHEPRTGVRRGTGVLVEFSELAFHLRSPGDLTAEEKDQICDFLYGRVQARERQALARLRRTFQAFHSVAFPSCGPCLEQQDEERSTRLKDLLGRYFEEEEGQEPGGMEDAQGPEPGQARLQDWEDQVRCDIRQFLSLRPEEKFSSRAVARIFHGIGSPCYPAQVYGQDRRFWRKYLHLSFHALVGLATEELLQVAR
Experiment: co-IP

B1: BLM (endogenous) (natural protein)
chain: not shown
- fold change of the co-immunoprecipitated BLM signal, S-phase against G0–G1 phase: ~5 fold
